Assay: soluble on expression in E. coli; label from the status in PepcDB or PDB records

| Sequence | soluble on expression in E. coli |
| --- | --- |
| MSLKEFLIKKIEFTLFEVCIPDIGADPSGFGVWYEPGPGTPQKRFAVRIFTDEGPVGVYVPPRSRATVIMPAAIALAHFLIRKPALERERHYQTMRRITKHVGEAGIGALDIALWDLGGKISGQPISQMLGGHRRKLPSYASTIPGDEHPKGLSSSEAYADFAQQCLEIGYKGYKMHGWKEGNPQRESEMIRAVARQVGGSMDIMYDAACHLKTLTDAIRVGRVCDEHELLWYEDPYADGGLTIRGHRALKEKVRTPVMIGEHVRNPEIHTELLVSGATDFGRVDPDYDGGITGSYKAAMAAESLGYDVEVHSCGPAMRQLMAALSISNYYEINLVHPIGPNPWQLPVYLNGYSDELDCIDREGMVDVSQSPGLGVDYDWEWIEKNSLERIIVDKAKEGHHHHHH | soluble |
| MGSDKIHHHHHHMITSKDNLTLIFVHACGVGNWMWYKQKDYFSNFSCMFIELPEHGDNYNIQPFSVKSAIKMIDKTVRSASGEVVLIGHEMGARLILNYLAEYTNDKVKKIVLSSTMIKTVKEGLFHKILPAKIIEKEFEKKNKNLQNIDFIKKTLDYYGVEEEYKDYYLNDMKRYKPRQLIKIIQEGLLKKLPLNLFIDNDIPALILVGEKETNANRLSAKLLSEYFSNSELIIVDNSTDNHIRTNSMVFNDRVKNFILT | not soluble |
| MAEVVVIGAGLSGTLMAYELLPQLGKDDRLSVISQGAIYHFVPSNPWVAVGWRKRDEIEIDLVDIMKRKGVRLLTQGAKRLHPTENRVELSDGTSINYDYLVVATGPELAFDEIPGLGPQGHTQSICHVDHASHAKDAFEKLAARPGPVVIGAVQGASCFGPAYEFLFILETELRRRKLRDQVPMTFVTSEPYVGHLGLDGVGDTKGLLEGEMREKHVKWITNARVKGVEAGKMVVEELGEGGAVHKTHELPFAYSMMLPAFRGVEAVRGIDKLTNPRGFVIVDKHQRNPAFPNVFAVGVCVAIAPVGATPVSVGVPKTGFMIESMVTATALNIGALLRGKEPSAQPTWNAICLADFGDSGVAFLAQPQIPPRNVNWSSKGEWVHYAKVAFEKYFLRKMRRGESEPFYERFLLDKLNIAKIKEVRTGTLEHHHHHH | soluble |
| MSLTVKMGFIGFGKSANRYHLPYVMIRETLEVKTIFDLHVNEKAAAPFKEKGVNFTADLNELLTDPEIELITICTPAHTHYDLAKQAILAGKSVIVEKPFCDTLEHAEELFALGQEKGVVVMPYQNRRFDGDYLAMKQVVEQGFLGEINEVETHIDYYRPGSITEQGPKENGSFYGLGIHLMDRMIALFGRPDQVTYDIRNNEVSEAVDNYFDVDLHYGSKLKVKVKTNHSVASPYPRFIVHGSNGSFIKYGEDQQENDLKAGIMPDAPGFGEDSPMYYGEVTYRNGNGDWIKKQIKTPVGDYGRYYDAVYETLKNGAPQLVTKEQALTNIEILEAGFLNPSPSVYHLKENEGHHHHHH | soluble |
| MGSDKIHHHHHHMKKVERINTIMRYINNRSHFTISEIIREFNISRSTAIRDIREIEAMGMPLVAEVGRSGGYFVMHNSILPVVRFTDNEVKALFIAFMATRNQQLPYLKSRQSLAEKLLGLISETQQDDLVLLNQLLLFEGTNPHNPDLLELSDLPHPMLEKLIQILLLDRYLLITVKEEIKSYPIYLLHLYKEKSYWIIEGFDLKEEKKLMFPVDDLINIEPYTPKKRLHKKQILERLSKKDEAINLVFELGPKAIAQFKKYHPFKVSISYTNPYQSTAILKTFIDVHNSDEVTEMTNWLLFLGKDITIKEMPEEVLKDLQERLCLYTP | not soluble |
| INPPQHKQFQNLMPMQPRRYPEGKVLPDREREFPNTFPEHSSPLLLPKQELDMRWRGPHPLPGY | not soluble |
| MGSDKIHHHHHHMKLNTIDYLAPDSAERFVESLRETGFGVLSNHPIQKQLVEDIYKEWYNFFQSEQKHDFLFKSETHDGFFPASISETAKGNNVKDIKEYYHVYPWGRIPDSLRANILAYYEHANTLAAELLSWIEKYTPADVAEKYSIPLPDMIAQSQQTLLRILHYPPMKGDEEMGAIRAAAHEDINLITILPAANEPGLQVKTKTGEWIDVPSDFGSIIINIGDMLQEASGGYFPSTSHRVINPEGTDKTKSRISLPLFLHPNPEVVLSERYTADSYLQERLRELGVI | not soluble |
| MIATKDIRIEKDFLGEKEVPSIAYYGVQTLRAVENFPITGYRIHPSLITAMAIVKKAAALANMDTGYLAKDIGHEIAEAAQEIVDGKFHDQFIVDPIQGGAGTSINMNTNEVIANRALERMGYEKGEYAKISPNTHVNMAQSTNDAFPTGIHIATLMRLEELLITMEELHAAFRAKAKEFDHVIKMGRTHLQDAVPIRLGQEFEAYSRVLARDIKRIKQSRQHLYEVNMGATAVGTGLNANPTYIEQVVKHLRTFSGFPLVGAEHLVDATQNTDAYTEVSAALKVCMMNMSKIANDLRIMASGPRVGLAEIQLPARQPGSSIMPGKVNPVMAEVINQVAFQVIGNDHTICLASEAGQLELNVMEPVLVFNLIQSISIMNNGFRVFREYCIKGITANEELLKQYVEKSVGIITAVNPHIGYEAASRIAREAIETGKSVRELCLEHGVLTEEELDIILDPFEMTHPEIAGASLLKDKKM | not soluble |
| MTESTFPQYPRLVLSKGREKSLLRRHPWVFSGAVSRLEGKANLGETIDIVDHQGKWLARGAWSPASQIRARVWTFDKAESIDIAFFTRRLRQAQQWRDWLAKKDGLDSYRLIAGESDGLPGVTIDRFGHFLVLQLLSAGAEYQRAALISALQTCYPDCAIYDRSDVAVRKKEGMALTQGPVTGELPPALLPIEEHGMKLLVDIQGGHKTGYYLDQRDSRLATRRYVENQRVLNCFSYTGGFAVSALMGGCRQVVSVDTSQDALDIARQNVELNQLDLSKAEFVRDDVFKLLRAYREHGEKFDVIIMDPPKFVENKSQLMGACRGYKDINMLAIQLLNPGGILLTFSCSGLMTSDLFQKIIADAAIDAGRDVQFIEQFRQAADHPVIATYPEGLYLKGFACRVM | not soluble |
| MKFICPLFVVNNMEISRNFYEKVLNQKVQYDFGENVSFESGFAIHLKPHFSELTGINRNDIIQKSNNSELYFEEEDLDSFLKKLKEMNSIEYVHELKEQPWGQRVIRFYDPDMHIIEVGEPMESVVKRLLSEGLSVEETSKRTLMPEEFVRQFLLEHHHHHH | soluble |
| MVPLESSTLFGVYGGFTDSMMMRETTTNNQDPSGDTCSVSDPAPGSTDYYNISSSPVKDDGTAPKNDVVCSINVDDNKDKSWLRLGIGPEENTDGSYKLQRCCSKNGSGRENSLELSLFSSSSTAVSSSIDHLPTQPLQLPYHHDQLLTMRGPSLVYNHQLMKPQTLLNRGFSFPSSKPWIPQYMAPFRPSSLSDRDVTNNNSLSRSCCVDEGGAGPSSEFRVLDPPRRPHSGLWFLLQASQFQ | soluble |
| MVKKVLLINGPNLNLLGTREPEKYGTTSLSDIEQAAIEQAKLKNNDSEVLVFQSNTEGFIIDRIHEAKRQGVGFVVINAGAYTHTSVGIRDALLGTAIPFIEVHITNVHQREPFRHQSYLSDKAVAVICGLGVYGYTAAIEYALNY | soluble |
| MKDFNQRFRDLHKLRQRARKENHEQVVEEDRRSKLPKNHEAKKERDQWQVKELQDRKAAEDKGLDYERVRSLEMSADVTEKLEQKRKRKKNPDQGFTSYEDMTLRQHTRLTAALDPDLDSYKKMRECVGGEQFYPTADTLIHGNHYPTTAAMDKLTKDVHGQVKRREQYHRRRLYDPDAPIDYINEKNKKFNKKLDKYYGKYTEDIKDDLERGTAI | not soluble |
| MDESMRHDIALFRYGLIAPLVNGQVEPKAYLNEVGGRVHSIPHQGDKPIAAKTILDWCARYKKGGFDALKPKRRSDRGRSRRLSPDDEDHILALRKEHPTMPVTLFYEQLTKQGDIPTTLSYFTIYRLLKKHNLVGKEILPMPERKRFAYDQINELWQGDLSHGPTIRVHGKAQKTFLIAYIDDCSRLVPYAQFFPSEKFDGLRIVTKEAVLRCGKPKRIYSDNGKIYRSEVLQYACAEMGITLIHTQPYDPQSKGKIERFFRTVQTRFYPLLELNPPKSLDELNERFWKWLEEEYHRKPHASLDGKTPHEVFQSQVERVVWIEDIDWLDAIFLKREHRKVKADGTITLNKQLYEVPPRFIGQSIELRYDERGVYVYEDGKRVAEAIRVRLEDNAYVKRHRSPFAAVSAKEGEQDV | not soluble |
| MSFSQAVSGLNAAATNLDVIGNNIANSATYGFKSGTASFADMFAGSKVGLGVKVAGITQDFTDGTTTNTGRGLDVAISQNGFFRLVDSNGSVFYSRNGQFKLDENRNLVNMQGMQLTGYPATGTPPTIQQGANPAPITIPNTLMAAKSTTTASMQINLNSTDPVPSKTPFSVSDADSYNKKGTVTVYDSQGNAHDMNVYFVKTKDNEWAVYTHDSSDPAATAPTTASTTLKFNENGILESGGTVNITTGTINGATAATFSLSFLNSMQQNTGANNIVATNQNGYKPGDLVSYQINNDGTVVGNYSNEQEQVLGQIVLANFANNEGLASQGDNVWAATQASGVALLGTAGSGNFGKLTNGALEASNVDLSKELVNMIVAQRNYQSNAQTIKTQDQILNTLVNLR | not soluble |
| MKFDIVVIGGGLAGASLLAALKGSGLRLALIESRPPAPLPDDDSWDARVYAISPGSVEFLQSSGIWQRMNAARITPVHEMRVHGDDNAARIDFSAYESGVPELACIIENRQLQHAVWEELAGAENVQIFCPAQCDSLAWQDSHVELTLADGTVLQTALLIGADGINSRVREQAGIGVDRHSYYQTGVVANFETERVHHHIAYQWFRRDGILALLPLPGKRVSMVWSANTALADELLNLSAEALCDRVARAAEYELGSMRLVTAPLGFPLNFVHARSLIKPRLALIGDAAHGIHPLAGQGVNLGLRDVRELARLQRQFGGIGDCGEFSLLRCYERNRKEDILAMGWVTDGLQKLFGSEDAAIMRIRNVGLGITNRLPLLKNRLMRHALSLEHHHHHH | not soluble |
| SNAMANIKIRQETPTAFYIKVHDTDNVAIIVNDNGLKAGTRFPDGLELIEHIPQGHKVALLDIPANGEIIRYGEVIGYAVRAIPRGSWIDESMVVLPEA | soluble |
| MSKVVPIASLTPYQSKWTICARVTNKSQIRTWSNSRGEGKLFSLELVDESGEIRATAFNEQVDKFFPLIEVNKVYYFSKGTLKIANKQFTAVKNDYEMTFNNETSVMPCEDDHHLPTVQFDFTGIDDLENKSKDSLVDIIGICKSYEDATKITVRSNNREVAKRNIYLMDTSGKVVTATLWGEDADKFDGSRQPVLAIKGARVSDFGGRSLSVLSSSTIIANPDIPEAYKLRGWFDAEGQALDGVSISDLKS | soluble |
| DQVSRFRLLGGNQVRPLAGGDEAYPAMMQAIREARVSIAMQSYIFDCDPIGREMAQALVEAQQRGVQVRVLIDAIGSKYSRPPIVRTLVRGGVRTARFMTNPLGVMRMPYANLRSHRKILVVDGHVGFTGGMNIRAAFVTALAGKAANGDTHFRLEGPVVAQLMAVFAHDWNFTTRESLEGPTWFPPAPERAPGSVPMRCVASGPDSALGSTHKM | not soluble |
| MTNNSGNKVQDIMTKNVATISPNQTVQEAAQIMSQKNIGALPVVENGQVKGMITDRDITLRVSSQGKDPSTVKVAEVMTNQVVTGTPNMSVQEAANVMAQHQVRRLPIVENNQLQGIVALGDIATNSASNEAAEQALTNISEPSQPQG | soluble |
| MKKSSLNNLEYLDISQEVNALQVPNTPFLSYLLGAGKVEAAKSTEIKWREYGMNNDDSSAQLEGGEYADAESDRTWFNNYTEIFRKSTSVSGTLDAINVDGVGNELNSQVALRATEMKIDLNRKLIVGVKADESGSKGRQMNGILNLISSTNKVETAAAGAVTRKDIDALFKTMFQKGYMGEKLCLVAPDMQELMIDQLDEKSTKIVQFGDKLTFGLQLGNIVSNYGSGIALIEPNLPNGTIAAIDTNYVKLRPLREWRAEELAKTTDSRRIGLVGEYSIEYKASNSGAILNLKA | not soluble |
